From paper PMC6556216

Target: Maporal virus (MPRLV) Gn/Gc virus-like particles (Maporal virus (MPRLV))
Test: BLI

“soluble PCDH1 EC1-EC2 (sEC1–2) (from UniProt Q08174-1 58-284) (domain or fragment)” was tested, and the Kd was 7 nM.
